The supplement of paper PMC9876800

System: peptide library, one residue held at a place counted from the S/T acceptor
Experiment: relative phosphorylation of the sub-library (ratio to the mean residue at this position); higher = residue favoured
Details: human
Summary of the method: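 Relative sub-library phosphorylation is the ratio of each sub-library's signal to the mean residue at that position. The signal came from phosphorimaging of spots on streptavidin membranes, quantified by densitometry, after purified recombinant kinases reacted with biotinylated degenerate peptide sub-libraries in 384-well plates. Reactions held 50 μM peptide and 50 μM ATP spiked with γ-32P-ATP for 90 min under kinase-specific conditions.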

Sequence of MAPK10, construct: aa1-426 (P53779 1-426, looked up): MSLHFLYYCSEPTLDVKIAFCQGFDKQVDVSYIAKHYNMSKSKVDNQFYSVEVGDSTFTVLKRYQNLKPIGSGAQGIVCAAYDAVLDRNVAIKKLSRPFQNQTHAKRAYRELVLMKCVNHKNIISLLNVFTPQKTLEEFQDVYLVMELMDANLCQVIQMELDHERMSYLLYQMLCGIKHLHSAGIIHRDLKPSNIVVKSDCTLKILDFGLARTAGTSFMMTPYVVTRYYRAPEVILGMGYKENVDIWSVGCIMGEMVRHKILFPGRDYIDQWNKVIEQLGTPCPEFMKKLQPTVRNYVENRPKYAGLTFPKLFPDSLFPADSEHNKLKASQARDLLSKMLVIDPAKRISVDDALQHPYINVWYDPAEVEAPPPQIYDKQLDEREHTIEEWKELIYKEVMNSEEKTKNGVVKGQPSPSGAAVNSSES
Sequence of MAPK15, construct: Full length (Q8TD08 whole entry, looked up): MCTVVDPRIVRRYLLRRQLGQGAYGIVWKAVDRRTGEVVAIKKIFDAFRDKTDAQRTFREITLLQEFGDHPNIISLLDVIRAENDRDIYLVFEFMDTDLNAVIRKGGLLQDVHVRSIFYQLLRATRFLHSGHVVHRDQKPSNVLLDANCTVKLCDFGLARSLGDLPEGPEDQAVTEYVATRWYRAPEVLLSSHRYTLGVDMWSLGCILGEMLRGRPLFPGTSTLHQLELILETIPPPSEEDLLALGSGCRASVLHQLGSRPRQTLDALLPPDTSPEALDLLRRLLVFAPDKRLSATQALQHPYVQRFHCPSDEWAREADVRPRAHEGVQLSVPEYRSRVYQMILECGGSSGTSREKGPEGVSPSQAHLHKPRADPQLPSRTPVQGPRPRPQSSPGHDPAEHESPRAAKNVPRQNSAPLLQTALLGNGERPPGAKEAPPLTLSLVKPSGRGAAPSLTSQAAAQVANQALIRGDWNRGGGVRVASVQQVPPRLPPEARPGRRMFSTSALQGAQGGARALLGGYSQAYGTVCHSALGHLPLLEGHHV

MAPK10, construct: aa1-426 (from UniProt P53779)
relative phosphorylation
Details	at +1	at +2	at +3	at +4	at -1	at -2	at -3	at -4	at -5
A fixed	0.471	0.918	1.3	1.17	1.08	2.16	1.22	1.22	1.17
D fixed	0.256	1	1.44	1.34	0.89	0.958	1.36	1.39	1.42
E fixed	0.234	0.725	1.52	1.25	0.855	0.548	1.15	1.28	1.18
F fixed	0.456	0.765	0.929	0.851	0.752	0.582	1	0.854	0.875
G fixed	0.671	1.12	1.38	1.1	1.16	0.785	1.13	1.06	1.15
H fixed	0.281	1.05	1.19	1.12	1.13	0.552	1.08	1.03	0.964
I fixed	0.351	1.26	0.596	0.783	0.662	1.25	0.735	0.705	0.738
K fixed	0.268	0.779	0.611	0.82	0.982	0.548	0.653	0.783	0.754
L fixed	0.366	1.27	0.77	0.913	1.2	1.96	0.853	0.753	0.644
M fixed	0.369	1.76	0.922	0.888	1.27	1.07	1.06	1.01	0.722
N fixed	0.269	1.03	1.07	1.07	0.849	0.554	1.03	0.84	0.928
P fixed	11.5	0.517	0.564	1.5	1.47	2.13	1.2	1.23	1.33
Q fixed	0.259	1.03	1	1.05	1.37	0.747	0.964	1.01	1.07
R fixed	0.269	0.848	0.945	0.893	1.01	0.612	0.883	0.923	1.07
V fixed	0.367	1.48	0.723	0.82	0.781	1.43	0.717	0.843	0.913
W fixed	0.29	0.723	1.03	0.701	0.722	0.587	1.03	1.1	0.967
Y fixed	0.292	0.734	0.999	0.732	0.815	0.518	0.929	0.962	1.1
pThr fixed	0.434	1.94	1.02	1.4	0.52	1.08	1.06	1.17	1.29
pTyr fixed	0.569	1.23	1.59	1.02	0.893	0.598	1.03	1.64	1.41

MAPK15, construct: Full length (from UniProt Q8TD08)
relative phosphorylation
Details	at +1	at +2	at +3	at +4	at -1	at -2	at -3	at -4	at -5
A fixed	1.98	0.19	1.12	1.12	0.933	1.36	1.3	1.04	1.08
D fixed	0.214	0.135	0.665	0.726	0.643	0.632	0.992	0.893	0.987
E fixed	0.31	0.115	0.655	0.643	0.517	0.59	0.941	1.01	0.859
F fixed	1.22	0.19	0.874	0.928	1.08	0.688	0.88	0.875	1.06
G fixed	1.05	0.226	1.2	1.11	0.767	0.947	1.5	1.18	1.09
H fixed	1.41	0.573	0.984	0.976	1.06	0.738	1.04	1.09	1.07
I fixed	0.221	0.173	0.598	0.864	0.897	1.17	0.869	0.869	0.831
K fixed	0.432	0.992	1.61	1.41	1.11	0.651	0.9	0.997	1.26
L fixed	0.27	0.189	0.85	0.95	1.55	1.53	0.985	0.959	0.754
M fixed	0.369	0.17	0.799	0.964	1.28	1.31	0.972	0.951	0.815
N fixed	0.436	0.247	0.863	0.853	0.789	0.944	0.965	1.04	0.89
P fixed	4.86	0.192	1.05	1.11	0.93	2.07	1.1	1.06	1.19
Q fixed	0.578	0.498	0.897	1.02	0.888	1.01	1.02	1.03	1.04
R fixed	1.04	12.5	2.31	1.46	1.23	0.817	0.928	1.1	1.24
V fixed	0.421	0.184	0.792	0.841	0.933	1.13	0.864	0.941	0.914
W fixed	0.758	0.232	0.825	1.17	1.06	0.719	0.88	1.02	0.864
Y fixed	1.44	0.225	0.903	0.866	1.34	0.69	0.872	0.956	1.07
pThr fixed	0.325	0.205	0.653	0.578	0.415	0.772	0.936	0.887	0.904
pTyr fixed	0.601	0.177	0.592	0.512	0.486	0.681	0.862	0.905	1.01
